From patent US20260273042A1

Legend:
[1] = biological target: BG505_SOSIP_D664_MD39_mC (BG505 SOSIP-MD39 or MD39) (HIV (strain BG505)); assay: SPR, trimer ligand, Fab analyte [panel A]
[2] = biological target: BG505_SOSIP_D664_olio6_mC (HIV (strain BG505)); assay: SPR, trimer ligand, Fab analyte [panel A]
[3] = biological target: BG505_SOSIP_D664_MD39_mC (BG505 SOSIP-MD39 or MD39) (HIV (strain BG505)); assay: SPR, trimer ligand, Fab analyte [panel A]; remark: listed apart in the source
[4] = biological target: BG505 SOSIP T332N gp140 (soluble trimer) (HIV (strain BG505)); assay: SPR, trimer ligand, Fab analyte [panel A]
[5] = biological target: BG505_SOSIP.D664_JS_3mut_mC (SOSIP-3MUT) (HIV (strain BG505)); assay: SPR, trimer ligand, Fab analyte [panel A]
MD39-10MUT [6] = assay: SPR, trimer ligand, Fab analyte [panel A]
[7] = biological target: BG505_SOSIP.D664_JS_5mut_mC (SOSIP-5MUT) (HIV (strain BG505)); assay: SPR, trimer ligand, Fab analyte [panel A]
[8] = biological target: BG505_SOSIP.D664_JS_10mut_mC (SOSIP-10MUT) (HIV (strain BG505)); assay: SPR, trimer ligand, Fab analyte [panel A]
[9] = biological target: BG505_SOSIP_MD39_2JD6 (HIV (strain BG505) fused to Pyrococcus furiosus ferritin); assay: SPR, captured particle, Fab analyte
[10] = biological target: BG505 SOSIP MD39 E2p (HIV (strain BG505) fused to Bacillus stearothermophilus E2p); assay: SPR, captured particle, Fab analyte
[11] = biological target: BG505_SOSIP_D664_MD39_mC (BG505 SOSIP-MD39 or MD39) (HIV (strain BG505)); assay: SPR (ligand and analyte not given)
[12] = biological target: BG505_SOSIP_D664_MD39_mC (BG505 SOSIP-MD39 or MD39) (HIV (strain BG505)); assay: SPR, monovalent interaction
[13] = biological target: BG505-gp120 9MUTB (7MUT+N135R/Q328M) (HIV (strain BG505)); assay: SPR, monomeric gp120
[14] = biological target: BG505_SOSIP_D664_olio6_mC (HIV (strain BG505)); assay: SPR (ligand and analyte not given)
BG505 MD37 = assay: SPR (ligand and analyte not given)
BG505 MD39C = assay: SPR (ligand and analyte not given)
[15] = biological target: BG505 SOSIP T332N gp140 (soluble trimer) (HIV (strain BG505)); assay: SPR, monovalent interaction
[16] = biological target: BG505_SOSIP_D664_MD39_mC (BG505 SOSIP-MD39 or MD39) (HIV (strain BG505)); assay: ELISA, His-tagged trimer captured, mAb titrated [panel B]
[17] = biological target: BG505_SOSIP.D664_JS_10mut_mC (SOSIP-10MUT) (HIV (strain BG505)); assay: as above
[18] = biological target: BG505_SOSIP.D664_JS_3mut_mC (SOSIP-3MUT) (HIV (strain BG505)); assay: SPR, IgG ligand, trimer analyte [panel A]
[19] = biological target: BG505_SOSIP.D664_JS_5mut_mC (SOSIP-5MUT) (HIV (strain BG505)); assay: SPR, IgG ligand, trimer analyte [panel A]
[20] = biological target: BG505_SOSIP.D664_JS_10mut_mC (SOSIP-10MUT) (HIV (strain BG505)); assay: SPR, IgG ligand, trimer analyte [panel A]
[21] = biological target: BG505_SOSIP_D664_MD39_mC (BG505 SOSIP-MD39 or MD39) (HIV (strain BG505)); assay: SPR, IgG ligand, trimer analyte [panel A]
[22] = biological target: BG505_SOSIP_D664_olio6_mC (HIV (strain BG505)); assay: SPR, IgG ligand, trimer analyte [panel A]
[23] = biological target: BG505_MD39_CP1.2_GRSF7_qLoops1 (HIV (strain BG505)); assay: SPR, Fab analyte
[24] = biological target: CD4 on human CD4+ T cells (human) (UniProt P01730); assay: flow cytometry, human CD4+ T cells stained with trimer labelled with two fluorescent probes
[25] = biological target: BG505 SOSIP T332N gp140 (soluble trimer) (HIV (strain BG505)); assay: SPR (ligand and analyte not given)
BG505 MD53 = assay: SPR (ligand and analyte not given)
[26] = biological target: BG505 SOSIP T332N gp140 (soluble trimer) (HIV (strain BG505)); assay: SPR, IgG ligand, trimer analyte [panel A]
MD39-10MUT [27] = assay: SPR, IgG ligand, trimer analyte [panel A]
[28] = biological target: BG505 SOSIP T332N gp140 (soluble trimer) (HIV (strain BG505)); assay: SPR, IgG ligand, trimer analyte [panel A]; remark: listed apart in the source
[29] = biological target: BG505 SOSIP T332N gp140 (soluble trimer) (HIV (strain BG505)); assay: ELISA, His-tagged trimer captured, mAb titrated [panel B]
[30] = biological target: BG505_SOSIP_D664_MD39_mC (BG505 SOSIP-MD39 or MD39) (HIV (strain BG505)); assay: SPR, trimer ligand, Fab analyte (1-to-1 fit relatively poor) [panel A]
[31] = biological target: BG505_SOSIP.D664_JS_3mut_mC (SOSIP-3MUT) (HIV (strain BG505)); assay: as above
[32] = biological target: BG505_SOSIP.D664_JS_10mut_mC (SOSIP-10MUT) (HIV (strain BG505)); assay: as above

Substance: 3BNC60 Fab
- Kd [1]: 189 nM
- Kd [2]: 119 nM

Substance: PGT128 Fab
- Kd [1]: 11 nM
- Kd [3]: 12 nM
- Kd [4]: 8 nM
- Kd [5]: 3 nM
- Kd (MD39-10MUT [6]): 3 nM
- Kd [7]: 5 nM
- Kd [8]: 3 nM
- Kd [9]: 5 nM
- Kd [10]: 6 nM

Substance: VRC01-Fab
- Kd [1]: 124 nM
- Kd [5]: 101 nM
- Kd (MD39-10MUT [6]): 142 nM
- Kd [7]: 195 nM
- Kd [8]: 115 nM
- Kd [9]: < 1 nM
- Kd [10]: < 1 nM

Substance: VRC01 (antibody)
- Kd [11]: 124 nM
- Kd [12]: 124 nM

Substance: PGT121 (antibody)
- Kd [13]: 1.5 nM

Substance: PGT128 (antibody)
- Kd [14]: 11 nM
- Kd (BG505 MD37): 19 nM
- Kd (BG505 MD39C): 14 nM
- Kd [12]: 12 nM
- Kd [15]: 8 nM

Substance: 3BNC60 (antibody)
- Kd [11]: 121 nM
- Kd [14]: 119 nM
- Kd (BG505 MD37): 189 nM
- Kd (BG505 MD39C): 144 nM

Substance: PGT151 (antibody)
- Kd [11]: 11 nM
- Kd [12]: 11 nM
- EC50 (read off the curve) [16]: 0.03 µg/mL
- EC50 (read off the curve) [17]: 0.03 µg/mL

Substance: PGT145 (antibody)
- Kd [11]: 20 nM
- Kd [14]: 31 nM
- Kd [18]: 3 nM
- Kd [19]: 3 nM
- Kd [20]: 3 nM
- Kd [12]: 60 nM
- Kd [21]: 20 nM
- Kd [22]: 31 nM

Substance: PGT145-Fab
- Kd [23]: 26 nM
- Kd [9]: 49 nM
- Kd [10]: 41 nM

Substance: BG505 SOSIP T332N gp140 (soluble trimer) (other; other documents disagree on this pair)
- percentage of cells in the double-positive population [24]: 99.1%

Substance: PGDM1400 (antibody)
- Kd [11]: 12 nM
- Kd [25]: 6 nM
- Kd (BG505 MD53): 11 nM
- Kd [26]: 2 nM
- Kd [18]: 1 nM
- Kd (MD39-10MUT [27]): 6 nM
- Kd [19]: 1 nM
- Kd [20]: 1 nM
- Kd [12]: 36 nM
- Kd [15]: 5 nM
- Kd [21]: 12 nM
- Kd [28]: 6 nM
- EC50 (read off the curve) [16]: 0.04 µg/mL
- EC50 (read off the curve) [29]: 0.04 µg/mL
- EC50 (read off the curve) [17]: 0.04 µg/mL

Substance: PGT151 Fab
- Kd [30]: 11 nM
- Kd [31]: 9 nM
- Kd [32]: 20 nM
- Kd [1]: 11 nM
- Kd [9]: 49 nM
- Kd [10]: 25 nM
